Experimental data as given in article PMC7162537.

Target: BRCA1 (UniProt P38398)
Experiment: anti-GFP co-IP from nuclear extract, blot
Conditions: reference: wild type GFP-CtIP; sites S327

- binding against the reference: lost
Substance: CtIP (from UniProt Q99708) S327A
